Measurements: patent US10513547B2, “Peptides and combination of peptides and scaffolds thereof for use in immunotherapy against colorectal carcinoma (CRC) and other cancers” (Immatics Biotechnologies GmbH, priority 2015, dated 2019)

Tests used:
HLA-A*02:01 = HLA-A*02:01 (Homo sapiens, UniProt P04439, D140Y/D185E/D98H/E176V/E277Q/G131W/G231S/I119V/I121R/I166T/I218V/L300P/L318F/N151K/N90K/P208A/P217A/Q86G/Q94H/R138H/R169H/T345S); experiment: MHC binding assay (UV-ligand exchange, beta2m ELISA, peptide exchange yield); details: binding to HLA-A*02:01
How it was run: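 Peptide–HLA-A*02:01 complexes formed by UV-ligand exchange, in which a UV-cleavable peptide is replaced by the test peptide. Exchange products, diluted 100-fold, were captured on streptavidin plates and detected with HRP anti-β2m ELISA at 450 nm. Yield was quantified against refolded monomer standards at 15-500 ng/ml.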

CD8+ T-cells = experiment: In vitro T-cell priming assay with aAPCs loaded with peptide/MHC and anti-CD28, pMHC multimer readout; format: cell-based, human; details: HLA-A*02 restricted peptides; positive wells among evaluable
From the text: In order to obtain information regarding the immunogenicity of the TUMAPs of the present invention, the inventors performed investigations using an in vitro T-cell priming assay based on repeated stimulations of CD8+ T-cells with artificial antigen presenting cells (aAPCs) loaded with peptide/MHC complexes and anti-CD28 antibody.
In order to perform in vitro stimulations by artificial antigen presenting cells loaded with peptide-MHC complex (pMHC) and anti-CD28 antibody, the inventors first isolated CD8+ T-cells from fresh HLA-A*02 leukapheresis products via positive selection using CD8 microbeads (Miltenyi Biotec, Bergisch-Gladbach, Germany) of healthy donors obtained from the University clinics Mannheim, Germany, after informed consent.
PBMCs and isolated CD8+ lymphocytes were incubated in T-cell medium (TCM) until use consisting of RPMI-Glutamax (Invitrogen, Karlsruhe, Germany) supplemented with 10% heat inactivated human AB serum (PAN-Biotech, Aidenbach, Germany), 100 U/ml Penicillin/100 μg/ml Streptomycin (Cambrex, Cologne, Germany), 1 mM sodium pyruvate (CC Pro, Oberdorla, Germany), 20 μg/ml Gentamycin (Cambrex). 2.5 ng/ml IL-7 (PromoCell, Heidelberg, Germany) and 10 U/ml IL-2 (Novartis Pharma, Nürnberg, Germany) were also added to the TCM at this step.
Generation of pMHC/anti-CD28 coated beads, T-cell stimulations and readout was performed in a highly defined in vitro system using four different pMHC molecules per stimulation condition and 8 different pMHC molecules per readout condition.
The purified co-stimulatory mouse IgG2a anti human CD28 Ab 9.3 (Jung et al., 1987) was chemically biotinylated using Sulfo-N-hydroxysuccinimidobiotin as recommended by the manufacturer (Perbio, Bonn, Germany). Beads used were 5.6 μm diameter streptavidin coated polystyrene particles (Bangs Laboratories, Illinois, USA).
800.000 beads/200 μl were coated in 96-well plates in the presence of 4×12.5 ng different biotin-pMHC, washed and 600 ng biotin anti-CD28 were added subsequently in a volume of 200 μl. Stimulations were initiated in 96-well plates by co-incubating 1×10^6 CD8+ T-cells with 2×10^5 washed coated beads in 200 μl TCM supplemented with 5 ng/ml IL-12 (PromoCell) for 3 days at 37° C. Half of the medium was then exchanged by fresh TCM supplemented with 80 U/ml IL-2 and incubating was continued for 4 days at 37° C. This stimulation cycle was performed for a total of three times. For the pMHC multimer readout using 8 different pMHC molecules per condition, a two-dimensional combinatorial coding approach was used as previously described (Andersen et al., 2012) with minor modifications encompassing coupling to 5 different fluorochromes. Finally, multimeric analyses were performed by staining the cells with Live/dead near IR dye (Invitrogen, Karlsruhe, Germany), CD8-FITC antibody clone SK1 (BD, Heidelberg, Germany) and fluorescent pMHC multimers. For analysis, a BD LSRII SORP cytometer equipped with appropriate lasers and filters was used. Peptide specific cells were calculated as percentage of total CD8+ cells. Evaluation of multimeric analysis was done using the FlowJo software (Tree Star, Oreg., USA). In vitro priming of specific multimer+ CD8+ lymphocytes was detected by comparing to negative control stimulations.

Row | Substance | Peptide exchange (MHC class I binding score, peptide exchange yield) (HLA-A*02:01) | Wells positive [%] (CD8+ T-cells)
1 | 136 (KLFDIFSQQV; listed as Homo sapiens) [compound 136] | “+++” (≥50 = +++) | “++” (20%-49% = ++)
2 | 141 (AVIEHLERL; listed as Homo sapiens) [compound 141] | “++++” (≥75% = ++++) | “+” (<20% = +)
3 | 142 (SLVQRVETI; listed as Homo sapiens) [compound 142] | “+++” (≥50 = +++) | “+” (<20% = +)
4 | 150 (RLADLEALKV; listed as Homo sapiens) [compound 150] | “+++” (≥50 = +++) | “++″ (20%-49% = ++)
